In article PMC6439443:

Target: High-mannose IgG1 antibody (human)
Test: SPR

Substance: EndoS2 E186L (catalytically inactive EndoS2 variant) (from UniProt T1WGN1 44-843) (enzyme)
- Kd: > 100 µM
